According to patent US20230287092A1 (AstraZeneca / MedImmune, published 2023):

Biological target: cynomolgus monkey Aβ42 (cynomolgus monkey, UniProt P53601 672-713)
Assay: cell-based or functional assay

cynomolgus monkey Aβ42, sequence (P53601 672-713 limits assumed): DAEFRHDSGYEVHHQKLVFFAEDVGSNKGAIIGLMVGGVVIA

B1: MEDI1814 (antibody, V domains shown)
VH: EVQLLESGGGLVQPGGSLRLSCAASMGNFNYQTMWWVRQAPGKGLEWVSVIGKTNENIAYADSVKGRFTISRDNSKNTLYLQMNSLRAEDTAVYYCAREWMDHSRPYYYYGMDVWGQGTLVTVSS
VL: SYELTQPPSVSVSPGQTASITCSGHNLEDKFASWYQQKPGQSPVLVIYRDDKRPSGIPERFSASNSGHTATLTISGTQAMDEADYYCSSQDTVTRVFGGGTKLTVL
  increase in total CSF Aβ42, 14 weekly doses, cynomolgus monkeys: ≤ 7.7 fold
  increase in total plasma Aβ42 against control, 14 weekly doses (10 or 100 mg/kg IV, 75 mg/kg SC), cynomolgus monkeys: ≤ 2060 fold
